# Laboratory results reported in PMC5832863, “Solution structure and dynamics of anti-CRISPR AcrIIA4, the Cas9 inhibitor” (Scientific Reports, 2018).
# B1: Listeria monocytogenes anti-CRISPR protein AcrIIA4 (a.a. 1-87) (natural protein, Listeria monocytogenes (prophage), UniProt A0A247D711 1-87, looked up)
# chain: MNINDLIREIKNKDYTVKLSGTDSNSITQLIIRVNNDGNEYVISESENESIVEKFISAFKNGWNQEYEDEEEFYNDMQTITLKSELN
# notes: AcrIIA4, anti-CRISPR protein encoded by Listeria monocytogenes prophages, residues 1-87, synthetic gene; Cloned into a modified pBT7-N-His vector; also called 15N-AcrIIA4; 13C,15N-AcrIIA4; source: E. coli BL21star(DE3), purified (HisTrap, TEV cleavage, Superdex 75, MonoQ); not shown: His6, N-terminal, cleaved
# Columns and labels:
# Settings in all cases: both partners purified
# [1] = target: T1, Streptococcus pyogenes Cas9 (a.a. 1-1368) (S. pyogenes, UniProt Q99ZW2 1-1368); test: ITC; apo-SpyCas9 (no sgRNA): 50 uM SpyCas9 in the cell titrated with 500 uM AcrIIA4; 25 °C; 20 mM sodium phosphate, pH 7.4, 100 mM NaCl, 5 mM BME, 0.01% NaN3; one-site binding model
# T1 construct: Cas9 RNA-guided endonuclease of Streptococcus pyogenes, residues 1-1368, synthetic gene in pET28b; the two states are told apart by the assay; also called SpyCas9; apo-SpyCas9; source: E. coli BL21(DE3), purified (HisTrap HP, HiTrap SP, Superdex200)
# T1 sequence (Q99ZW2 whole entry, the tested form may be a part): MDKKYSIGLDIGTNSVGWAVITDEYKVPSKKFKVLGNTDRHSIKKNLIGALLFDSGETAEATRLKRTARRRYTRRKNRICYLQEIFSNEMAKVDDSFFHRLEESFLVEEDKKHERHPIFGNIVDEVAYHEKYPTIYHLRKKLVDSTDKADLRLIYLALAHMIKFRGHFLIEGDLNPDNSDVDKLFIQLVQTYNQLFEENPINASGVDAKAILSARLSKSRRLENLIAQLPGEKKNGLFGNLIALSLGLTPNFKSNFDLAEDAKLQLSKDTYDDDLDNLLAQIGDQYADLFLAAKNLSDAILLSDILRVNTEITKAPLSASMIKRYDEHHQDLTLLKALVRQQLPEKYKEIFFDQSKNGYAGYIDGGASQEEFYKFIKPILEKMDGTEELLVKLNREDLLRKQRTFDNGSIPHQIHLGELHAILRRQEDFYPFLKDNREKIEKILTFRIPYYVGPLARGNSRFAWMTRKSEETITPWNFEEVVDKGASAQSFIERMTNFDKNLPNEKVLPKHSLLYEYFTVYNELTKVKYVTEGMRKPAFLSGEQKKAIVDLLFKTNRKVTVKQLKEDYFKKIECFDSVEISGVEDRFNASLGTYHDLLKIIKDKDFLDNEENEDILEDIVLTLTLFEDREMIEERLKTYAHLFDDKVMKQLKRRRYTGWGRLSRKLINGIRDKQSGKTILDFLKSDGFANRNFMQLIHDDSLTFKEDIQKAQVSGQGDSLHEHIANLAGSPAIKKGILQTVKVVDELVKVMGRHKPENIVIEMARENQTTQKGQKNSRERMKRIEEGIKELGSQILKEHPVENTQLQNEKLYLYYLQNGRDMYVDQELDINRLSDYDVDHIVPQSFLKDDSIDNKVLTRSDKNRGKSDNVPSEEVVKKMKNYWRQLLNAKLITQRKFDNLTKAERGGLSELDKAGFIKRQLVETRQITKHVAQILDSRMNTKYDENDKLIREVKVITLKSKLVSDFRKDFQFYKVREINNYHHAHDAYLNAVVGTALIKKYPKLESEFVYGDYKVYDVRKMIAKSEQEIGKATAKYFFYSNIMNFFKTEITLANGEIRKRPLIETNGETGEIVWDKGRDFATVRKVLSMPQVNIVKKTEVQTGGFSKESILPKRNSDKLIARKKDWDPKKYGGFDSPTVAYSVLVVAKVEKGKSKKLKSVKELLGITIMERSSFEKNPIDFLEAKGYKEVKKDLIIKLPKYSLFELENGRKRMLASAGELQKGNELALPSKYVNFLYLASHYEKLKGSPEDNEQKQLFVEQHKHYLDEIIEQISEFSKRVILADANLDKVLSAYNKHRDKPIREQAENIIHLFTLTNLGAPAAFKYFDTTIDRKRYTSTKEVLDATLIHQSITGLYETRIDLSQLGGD
# [2] = target: T1, Streptococcus pyogenes Cas9 (a.a. …); test: as above; remark: listed apart in the source
# [3] = target: T1, Streptococcus pyogenes Cas9 (a.a. …); test: ITC; sgRNA-bound SpyCas9 titrated with AcrIIA4; 25 °C; one-site binding model
binder,measurement,setting,value
B1,stoichiometry N,[1],1
same,Kd,[2],4800 ± 150 nM
same,dH,[2],-11.5 ± 0.7 kcal/mol
same,Kd,[3],0.6 ± 0.1 nM
same,dH,[3],-10.3 ± 0.1 kcal/mol
